Experimental data taken from the supplement of paper PMC10567573.

B1: CAMK2A (parent)
chain: ILLVGYPPFWDEDQHRLYKQIKAG
B2: SNAP91 (parent)
chain: FSTDAFSSPPQGASPVPESSLTAD

Variants of: B1
Experiment: protein stability index of a GFP-peptide fusion (GPS, HEK-293T) (PSI 1-6); higher = more stable
Details: c terminus: a fixed tail appended
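Further: lentivirally expressed fusions sorted by FACS into six bins by GFP to DsRed ratio, PSI derived from sequencing read proportions per bin multiplied by bin number.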

Protein stability index of substitutions, site by site:
K19: Y 3.14; R 1.36; I 2.67; Q 2.79; G 3.31; E 1.87; H 1.38; V 2.9; M 3.5; N 3.09; W 2.65; A 1.65; T 1.72
P8: R 3.38; E 2.1; N 4.23; C 4.72; V 2.96; L 1.81; K 2.06; T 1.87
G5: E 3.74; W 1.53; N 1.99; M 2.53; R 2.65; D 1.55; P 3.17; F 3.4; Q 2.37
I1: N 2.03; K 2.23; E 2.96; R 2.54; M 1.8; Q 1.82; L 2.05; F 1.72; Y 1.73; V 2.15
Y18: C 1.73; F 1.4; H 1.89; A 2.09; G 2.79; K 2.31; Q 1.51; D 1.97; P 1.71; W 2.45; S 1.95; R 2.45; L 2.48; T 3.2; M 2.16; N 2.05; E 2.38
Y6: S 1.43; T 1.77; K 1.39; L 1.61; I 5.07; G 2.23; E 2.1; V 1.45; C 1.62
L2: T 1.86; G 2.4; H 1.72; Q 1.42; S 1.75; A 1.6; D 2.12; C 2.11; P 1.86; V 1.67; N 1.52; I 2.57
H15: T 2.8; F 2.5; A 2.55; Q 2.51; V 2.84; W 2.08; N 2.2; L 2.16; C 3.07; I 2.31
F9: Y 1.5; H 1.84; V 2.37; M 1.99; E 1.44; K 2.52; P 2.13; D 1.77; R 2.83; T 1.84; I 1.62; W 1.28; A 1.65
I21: A 1.79; F 3.06; W 2.4; R 2.05; L 2.31; S 1.82; Y 1.84; P 1.42; G 1.54; T 1.73; V 1.89; C 2.35; Q 2.28; D 1.99
R16: V 2.67; K 1.57; G 1.64; M 2.07; T 1.29; A 2.61; I 1.62; D 2.63; Q 1.84; N 2.27; H 2.12; E 2.2
Q14: Y 2.54; A 2.65; D 2.32; P 3.6; W 1.57; F 2.52; V 2.89; S 2.59; H 2.67; T 2.98; R 2.78; K 1.68; G 3.47; L 2.35
L17: T 2.14; R 2.12; K 1.74; Y 2.38; W 2.09; H 1.75; C 1.19; G 1.58; V 2.21; M 2.47; S 1.8; E 2.09
G24: V 2.81; N 3.14; H 2.08; D 1.87; Y 2.39; E 1.36; K 1.7; T 2.58; W 1.96; L 1.8
E12: Q 3.3; N 1.42; W 2.32; K 1.92; D 2.27; T 1.96; F 2.03; Y 2.57; H 2.29
L3: Q 1.79; I 2.58; K 1.58; D 2.63; P 2.58; T 1.97; E 2.19; A 1.65; W 2.4
K22: D 1.97; M 2.6; I 2.55; A 2.87; E 1.96; Q 3.46; W 2.2; P 2.74; S 3.22
V4: C 1.64; K 2.23; Y 2.13; T 2.31; I 3.1; Q 2.33; P 1.73; G 2.24
A23: M 2.06; R 2.21; D 1.98; W 3.2; L 2.11; F 2.23; K 2.1; I 2.82; T 1.27; H 1.58; G 1.72
D13: E 1.76; I 2.18; Q 2.42; K 3.5; A 3.24; L 3.98; R 2.19; H 2.2; F 3.02
P7: I 2.46; W 2.73; Y 4.41; V 2.63; E 1.43; M 2.9; L 2.89
Q20: F 2.69; R 2; A 1.78; T 1.62; W 2.02; E 2.18; D 1.9; M 2.36; N 1.83; P 1.39; H 2.86; V 3.11
W10: S 2.45; A 1.73; R 1.52; G 1.86; K 1.6; H 1.56; V 2.05; N 1.71; D 1.69; C 1.64; M 1.18; L 2.54; P 3.75; T 2.34
D11: S 2.62; V 2.18; T 1.85; A 2.34; C 2.48; K 2.46; P 2.35; H 2.29; F 3.09; N 2.59; G 1.55; E 3.38; Y 1.61; M 2.52; I 3.45

Variants of: B2
Experiment: as above
Details: c terminus: a fixed tail appended

Protein stability index of substitutions, site by site:
L21: M 3.11; S 3.58; W 2.92; Y 2.81; I 3.01; H 3.47; R 3.11; K 3.12; Q 3.53; N 3.39; V 3.39; T 3.45; P 3.33
A23: N 3.5; E 3.35; W 2.65; D 3.36; M 2.97; L 3.23; C 2.23; P 2.8; Q 3.91; K 3.49; T 3.35; G 3.09; H 2.85; F 3.01; S 2.94; V 2.96; I 3.08; R 2.96
T22: G 3.3; M 3.31; N 3.09; L 3.63; C 3.3; S 3.63; P 2.83; E 3.86; A 2.92; H 3.09; Y 3.21; I 3.21; K 2.64; D 3.46; R 2.93; W 2.28; V 3.41; F 2.96; Q 3.36
D24: T 2.89; H 2.42; A 3.03; W 1.87; I 2.92; L 3.07; C 2.83; Q 3.01; F 2.12; K 3.18; N 2.62; V 2.18; G 2.75; S 2.78; R 3.49; M 3.19; Y 2.25; E 3.02
